According to patent US20140248641A1, “CLONED GLUCAGON-LIKE PEPTIDE-2 RECEPTORS” (NPS PHARMACEUTICALS, INC., priority 1997, published 2014):
Where a chain is given by its changes, count along the chain named.

How the values were obtained:
Type in all cases: cell-based
[1] = target: T1, cloned residue 85 variant human GLP-2 receptor (Homo sapiens, UniProt O95838, R85E); experiment: cAMP functional assay in transfected COS-1 cells, residue 85 variant human GLP-2 receptor; details: hybrid clone pc3.1/HuGL2R/MH6 with 2 bp GA replacement (Glu85 variant)
T1 construct: Myc-His (from vector pcDNA3.1(-)/Myc-His A) (C); expressed in transfected cells; host or cells: COS-1
T1 sequence (O95838 1-553 R85E): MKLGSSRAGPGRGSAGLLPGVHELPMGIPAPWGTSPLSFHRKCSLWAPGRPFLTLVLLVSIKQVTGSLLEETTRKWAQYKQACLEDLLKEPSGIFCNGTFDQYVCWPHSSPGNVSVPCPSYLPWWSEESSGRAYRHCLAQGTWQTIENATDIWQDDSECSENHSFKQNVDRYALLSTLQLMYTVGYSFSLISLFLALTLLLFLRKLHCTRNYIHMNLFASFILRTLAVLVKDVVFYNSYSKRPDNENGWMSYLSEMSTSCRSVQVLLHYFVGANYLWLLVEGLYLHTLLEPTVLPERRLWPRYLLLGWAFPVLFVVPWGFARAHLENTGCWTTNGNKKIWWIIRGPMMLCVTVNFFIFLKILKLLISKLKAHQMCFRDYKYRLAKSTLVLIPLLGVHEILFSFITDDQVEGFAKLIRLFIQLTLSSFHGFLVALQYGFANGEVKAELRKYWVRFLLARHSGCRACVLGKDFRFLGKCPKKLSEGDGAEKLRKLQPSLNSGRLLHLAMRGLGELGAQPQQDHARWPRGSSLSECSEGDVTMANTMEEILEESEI
Procedure: Rat GLP-1 (7-36) amide was used as a control peptide. Solutions used were as follows:
(§1) RSC in RPMI 1640 (49 ml RPMI+1 ml FCS+5)0 ulchloroquine, 100 mM); DEAE/RSC Solution: 18.4 ml RSC+1.6 ml DEAE/Dextran (10 mg/ml).
The assay procedure entailed the following:
a) […] of either rat clone 587 GLP-2 receptor, or cloned human GLP-2 receptor, or cloned residue 85 variant human GLP-2 receptor was added (as plasmid pcDNA3) to a 50 ml tube containing six mls. of RSC and incubated at 37° C. b) Six ml of DEAE/RSC solution was added to each tube and incubated at 37° C. for 2 min. c) 1.5 ml of COS-1 cell suspension (5.5 millions cells) was added to each tube and incubated for 1 hr 45 min at 37° C. d) Following incubation, the sample was spun for 5 minutes at low speed, washed with DMEM/F12+10% FBS twice, and the pellet resuspended in 12.5 ml DMEM/F12+10% FBS media. e) One ml of cell suspension (step d) was added to each well of 6 well plates coated with poly-D-lysine (from Collaborative Biomedical), containing 3 ml of media (0.45 million cells/well). f) Plates were incubated at 37° C. for 3 days.
Media was prepared fresh on day of use. […]
(§2) The functional assay was performed as follows: cAMP content for each extract was determined in duplicate by EIA (Enzyme ImmunoAssay) using the Amersham Biotrak cAMP EIA Kit (Amersham 225). […]

[2] = target: T2, cloned human GLP-2 receptor (pC3/HuGL2R-2) (Homo sapiens, UniProt O95838); experiment: cAMP functional assay in transfected COS-1 cells, human GLP-2 receptor; details: FIG. 8
T2 construct: expressed in transfected cells; host or cells: COS-1
T2 sequence (O95838 1-553): T1 sequence (O95838 1-553 R85E) with E85R
Procedure: (§3) Cos-1 cells were transfected as described in Analytical Biochemistry, 218:460-463(1994) with Rat clone 587 GLP-2 receptor, cloned human GLP-2 receptor (pC3/HuGL2R-2), or cloned residue 85 variant human GLP-2 receptor (pC3.1/HuGL2R-MH4), pcDNA3. Rat GLP-1 (7-36) amide was used as a control peptide. Solutions used were as follows:
as §1
(§4) The assay procedure entailed the following: […]
as §2

[3] = target: T3, Rat clone 587 GLP-2 receptor (Rattus norvegicus, UniProt Q9Z0W0); experiment: cAMP functional assay in transfected COS-1 cells, rat GLP-2 receptor
T3 construct: one which primed starting 4 bp upstream of the initiation codon and another which primed starting 8 bp downstream of the stop codon; expressed in transfected cells; host or cells: COS-1
T3 sequence (Q9Z0W0 1-550): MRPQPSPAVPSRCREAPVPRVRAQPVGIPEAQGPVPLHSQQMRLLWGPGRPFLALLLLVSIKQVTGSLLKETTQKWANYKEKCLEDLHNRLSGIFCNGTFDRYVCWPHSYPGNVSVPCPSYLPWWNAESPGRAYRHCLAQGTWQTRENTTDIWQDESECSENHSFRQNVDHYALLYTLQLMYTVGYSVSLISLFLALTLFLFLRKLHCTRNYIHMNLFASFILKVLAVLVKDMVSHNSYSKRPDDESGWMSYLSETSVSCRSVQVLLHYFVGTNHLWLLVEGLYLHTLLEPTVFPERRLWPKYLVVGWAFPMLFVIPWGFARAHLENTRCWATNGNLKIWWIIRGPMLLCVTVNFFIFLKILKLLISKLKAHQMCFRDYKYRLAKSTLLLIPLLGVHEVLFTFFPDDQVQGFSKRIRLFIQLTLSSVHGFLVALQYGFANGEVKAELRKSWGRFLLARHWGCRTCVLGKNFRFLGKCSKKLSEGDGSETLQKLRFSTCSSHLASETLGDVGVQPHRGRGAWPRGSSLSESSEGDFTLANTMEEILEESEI
Procedure: as §3, §1, §4
The functional assay was performed as follows: cAMP content for each extract was determined in duplicate by EIA (Enzyme ImmunoAssay) using the Amersham Biotrak cAMP EIA Kit (Amersham 225).

[4] = system: HHT13 clones (human GLP-2R cDNA with frame-shift mutation); experiment: cAMP functional assay in COS cells transfected with HHT13 clones; details: COS cells transfected with pHHT13-1, pHHT13-2, pHHT13-3
Procedure: Transfections were carried out with each clone, using the rat GLP-2R, 587 clone as a positive control for cAMP response to GLP-2 peptide. Methods for transfection, cell culture and cAMP assay were identical to those described for the functional assay of rat, 587 clone.

Substance: Glucagon-like peptide-2 [GLP-2]
- cAMP response to GLP-2 treatment [1]: cAMP response
- cAMP production in response to GLP-2 treatment ([2]; COS cells transfected with pc3/HuGL2R-2): cAMP production
- selectivity of receptor for GLP-2 over GLP-1 (cAMP) ([2]; cloned human receptor, peptides at 1, 3, 10 and 30 nM, 30 min): GLP-2 selectivity
- cAMP response to GLP-2 peptide ([3]; COS cells transfected with rat GLP-2R 587 clone (positive control), cAMP EIA): good cAMP response
- selectivity of receptor for GLP-2 over GLP-1 (cAMP) ([3]; cloned rat receptor, peptides at 1, 3, 10 and 30 nM, 30 min, FIG. 3): GLP-2 selectivity
- cAMP response to GLP-2 peptide [4]: none of the HHT13 clones gave any cAMP response
